The values that follow come from patent US12662524B2.

Several values for one entry are separate records, joined by “and”; a condition that tells them apart may be missing. Identical values can stand only once.

Substrate in experiment [1]: CP C3-convertase (C4b2a) (Homo sapiens (Human)) (UniProt P0C0L4)
The target in experiment [2] is AP C3-convertase (C3bBb) (Homo sapiens (Human)) (UniProt P01024).
Experiment [3] addresses C3b (Homo sapiens (Human)) (UniProt P01024).
The target in experiment [4] is C4b (Homo sapiens (Human)) (UniProt P0C0L4).
Sequence of C4b (Homo sapiens (Human)) (P0C0L4 757-1446 limits assumed, chain 1 of 2): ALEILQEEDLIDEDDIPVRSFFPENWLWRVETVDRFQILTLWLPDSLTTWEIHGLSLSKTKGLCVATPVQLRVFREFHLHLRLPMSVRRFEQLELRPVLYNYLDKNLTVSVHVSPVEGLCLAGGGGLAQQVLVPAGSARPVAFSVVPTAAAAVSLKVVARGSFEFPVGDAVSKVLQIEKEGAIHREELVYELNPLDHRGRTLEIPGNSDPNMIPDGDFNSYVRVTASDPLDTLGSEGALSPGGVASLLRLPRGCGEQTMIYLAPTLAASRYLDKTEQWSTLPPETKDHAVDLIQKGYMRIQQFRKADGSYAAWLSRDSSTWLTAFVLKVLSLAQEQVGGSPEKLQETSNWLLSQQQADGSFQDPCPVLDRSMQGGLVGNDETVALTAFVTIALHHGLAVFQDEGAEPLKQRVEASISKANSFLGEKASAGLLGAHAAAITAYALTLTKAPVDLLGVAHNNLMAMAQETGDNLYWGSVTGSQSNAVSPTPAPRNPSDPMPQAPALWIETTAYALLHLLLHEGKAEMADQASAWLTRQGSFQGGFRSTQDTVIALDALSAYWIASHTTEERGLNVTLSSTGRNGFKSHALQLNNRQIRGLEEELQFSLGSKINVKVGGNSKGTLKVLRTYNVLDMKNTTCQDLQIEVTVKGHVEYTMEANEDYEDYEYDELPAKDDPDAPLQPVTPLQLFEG
Sequence of C4b (Homo sapiens (Human)) (P0C0L4 20-675 limits assumed, chain 2 of 2): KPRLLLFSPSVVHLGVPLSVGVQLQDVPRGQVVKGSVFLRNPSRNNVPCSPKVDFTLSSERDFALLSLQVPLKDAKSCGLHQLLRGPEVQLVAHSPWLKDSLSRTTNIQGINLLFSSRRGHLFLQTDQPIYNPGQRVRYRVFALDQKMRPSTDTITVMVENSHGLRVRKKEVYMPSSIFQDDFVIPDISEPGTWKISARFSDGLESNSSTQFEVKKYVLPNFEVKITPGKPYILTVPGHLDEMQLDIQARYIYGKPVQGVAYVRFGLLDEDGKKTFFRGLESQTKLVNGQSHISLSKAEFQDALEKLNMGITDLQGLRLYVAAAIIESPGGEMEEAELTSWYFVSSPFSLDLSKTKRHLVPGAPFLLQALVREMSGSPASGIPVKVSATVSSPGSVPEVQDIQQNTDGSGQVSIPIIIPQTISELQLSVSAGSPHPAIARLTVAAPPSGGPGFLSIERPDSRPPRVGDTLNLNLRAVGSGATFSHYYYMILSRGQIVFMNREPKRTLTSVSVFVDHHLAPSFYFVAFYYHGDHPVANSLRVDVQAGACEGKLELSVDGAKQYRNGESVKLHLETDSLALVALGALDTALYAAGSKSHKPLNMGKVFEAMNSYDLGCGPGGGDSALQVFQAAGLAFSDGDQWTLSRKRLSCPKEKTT

B1: decay-accelerating factor (DAF; CD55) (protein)
chain: CGLPPDVPNAQPALEGRTSFPEDTVITYKCEESFVKIPGEKDSVICLKGSQWSDIEEFCNRSCEVPTRLNSASLKQPYITQNYFPVGTVVEYECRPGYRREPSLSPKLTCLQNLKWSTAVEFCKKKSCPNPGEIRNGQIDVPGGILFGATISFSCNTGYKLFGSTSSFCLISGSSVQWSDPLPECREIYCPAPPQIDNGIIQGERDHYGYRQSVTYACNKGFTMIGEHSIYCTVNNDEGEWSGPPPECRGKS
B1: the CP-DAA IC50 in experiment [1] is 16.5 nM and 14.5 nM and 2.6 nM. Besides, the AP-DAA IC50 in experiment [2] was 1.1 nM and 2.3 nM.

B2: D2D3 (protein)
chain: CEVPTRLNSASLKQPYITQNYFPVGTVVEYECRPGYRREPSLSPKLTCLQNLKWSTAVEFCKKKSCPNPGEIRNGQIDVPGGILFGATISFSCNTGYKLFGSTSSFCLISGSSVQWSDPLPECREIY
As to B2, the CP-DAA IC50 in experiment [1] is 10.9 nM. Moreover, in experiment [2], the AP-DAA IC50 is above 10 nM.

B3: D2M2-4 (protein)
chain: CEVPTRLNSASLKQPYITQNYFPVGTVVEYECRPGYRREPSLSPKLTCLQNLKWSTAVEFCKKKSCPYIRDPLNGQAVPANGTYEFGYQMHFICNEGYYLIGEEILYCELKGSVAIWSGKPPICEKVLCTPPPKIKNGKHTFSEVEVFEYLDAVTYSCDPAPGPDPFSLIGESTIYCGDNSVWSRAAPECKVVKCRFPVVENGKQISGFGKKFYYKATVMFECDKGFYLDGSDTIVCDSNSTWDPPVPKCLKVL
Take B3: the CP-DAA IC50 in experiment [1] was determined as 457 nM. Moreover, the AP-DAA IC50 in experiment [2] is above 10 nM.

B4: D2M2-4 (ML) (protein)
chain: CEVPTRLNSASLKQPYITQNYFPVGTVVEYECRPGYRREPSLSPKLTCLQNLKWSTAVEFCYRETCPYIRDPLNGQAVPANGTYEFGYQMHFICNEGYYLIGEEILYCELKGSVAIWSGKPPICEKVLCTPPPKIKNGKHTFSEVEVFEYLDAVTYSCDPAPGPDPFSLIGESTIYCGDNSVWSRAAPECKVVKCRFPVVENGKQISGFGKKFYYKATVMFECDKGFYLDGSDTIVCDSNSTWDPPVPKCLKVL
Regarding B4, in experiment [1], the CP-DAA IC50 was above 1000 nM. In experiment [2], the AP-DAA IC50 is above 10 nM.

B5: D2D3D4M4 (protein)
chain: CEVPTRLNSASLKQPYITQNYFPVGTVVEYECRPGYRREPSLSPKLTCLQNLKWSTAVEFCKKKSCPNPGEIRNGQIDVPGGILFGATISFSCNTGYKLFGSTSSFCLISGSSVQWSDPLPECREIYCPAPPQIDNGIIQGERDHYGYRQSVTYACNKGFTMIGEHSIYCTVNNDEGEWSGPPPECRGKSCRFPVVENGKQISGFGKKFYYKATVMFECDKGFYLDGSDTIVCDSNSTWDPPVPKCLKVL
On to B5, for which the CP-DAA IC50 in experiment [1] was 5.7 nM. In experiment [2], this molecule registered an AP-DAA IC50 of 5.6 nM.

B6: membrane cofactor protein (MCP; CD46) (protein)
chain: CEEPPTFEAMELIGKPKPYYEIGERVDYKCKKGYFYIPPLATHTICDRNHTWLPVSDDACYRETCPYIRDPLNGQAVPANGTYEFGYQMHFICNEGYYLIGEEILYCELKGSVAIWSGKPPICEKVLCTPPPKIKNGKHTFSEVEVFEYLDAVTYSCDPAPGPDPFSLIGESTIYCGDNSVWSRAAPECKVVKCRFPVVENGKQISGFGKKFYYKATVMFECDKGFYLDGSDTIVCDSNSTWDPPVPKCLKVL
Turning to B6, the C3b CFA: time (min.) for 50% cleavage of C3b α′-chain in experiment [3] is 3.5 min and 2.1 min and 4.5 min. Also, the C4b CFA: time (min.) for 50% cleavage of C4b α-chain in experiment [4] was 16.5 min and 12 min and 9.3 min.

B7: D2D3M3M4 (Multi-4) (protein)
chain: CEVPTRLNSASLKQPYITQNYFPVGTVVEYECRPGYRREPSLSPKLTCLQNLKWSTAVEFCKKKSCPNPGEIRNGQIDVPGGILFGATISFSCNTGYKLIGKTSSFCLISGSSVQWSDKLPICEKVLCTPPPKIKNGKHTFSEVEVFEYLDAVTYSCDPAPGPDPFSLIGESTIYCGDNSVWSRAAPECKVVKCRFPVVENGKQISGFGKKFYYKATVMFECDKGFYLDGSDTIVCDSNSTWDPPVPKCLKVL
Consider B7, for which the CP-DAA IC50 in experiment [1] came out at 39.3 nM. The same molecule showed a C3b CFA: time (min.) for 50% cleavage of C3b α′-chain in experiment [3] of 17.5 min. The same molecule displayed an AP-DAA IC50 in experiment [2] above 10 nM. For the same molecule, in experiment [4], the C4b CFA: time (min.) for 50% cleavage of C4b α-chain is 5.5 min.

B8: D2D3M3M4 (F197I) (protein)
chain: CEVPTRLNSASLKQPYITQNYFPVGTVVEYECRPGYRREPSLSPKLTCLQNLKWSTAVEFCKKKSCPNPGEIRNGQIDVPGGILFGATISFSCNTGYKLIGSTSSFCLISGSSVQWSDPLPECREIYCTPPPKIKNGKHTFSEVEVFEYLDAVTYSCDPAPGPDPFSLIGESTIYCGDNSVWSRAAPECKVVKCRFPVVENGKQISGFGKKFYYKATVMFECDKGFYLDGSDTIVCDSNSTWDPPVPKCLKVL
On to B8, for which, in experiment [1], the CP-DAA IC50 worked out at 30.7 nM. This molecule displayed a C3b CFA: time (min.) for 50% cleavage of C3b α′-chain in experiment [3] of 49.8 min. In addition, the AP-DAA IC50 in experiment [2] turned out to be 4.4 nM. This molecule also gave a C4b CFA: time (min.) for 50% cleavage of C4b α-chain in experiment [4] of 66.7 min.

B9: D2D3M3M4 (P216K) (protein)
chain: CEVPTRLNSASLKQPYITQNYFPVGTVVEYECRPGYRREPSLSPKLTCLQNLKWSTAVEFCKKKSCPNPGEIRNGQIDVPGGILFGATISFSCNTGYKLFGSTSSFCLISGSSVQWSDKLPECREIYCTPPPKIKNGKHTFSEVEVFEYLDAVTYSCDPAPGPDPFSLIGESTIYCGDNSVWSRAAPECKVVKCRFPVVENGKQISGFGKKFYYKATVMFECDKGFYLDGSDTIVCDSNSTWDPPVPKCLKVL
As to B9, in experiment [1], the CP-DAA IC50 amounted to 21 nM. In experiment [3], the C3b CFA: time (min.) for 50% cleavage of C3b α′-chain was found to be 30.1 min. Further, in experiment [2], the AP-DAA IC50 was 3.4 nM. Further, the C4b CFA: time (min.) for 50% cleavage of C4b α-chain in experiment [4] worked out at 93 min.

B10: D2D3M3M4 (protein)
chain: CEVPTRLNSASLKQPYITQNYFPVGTVVEYECRPGYRREPSLSPKLTCLQNLKWSTAVEFCKKKSCPNPGEIRNGQIDVPGGILFGATISFSCNTGYKLFGSTSSFCLISGSSVQWSDPLPECREIYCTPPPKIKNGKHTFSEVEVFEYLDAVTYSCDPAPGPDPFSLIGESTIYCGDNSVWSRAAPECKVVKCRFPVVENGKQISGFGKKFYYKATVMFECDKGFYLDGSDTIVCDSNSTWDPPVPKCLKVL
In the case of B10, the CP-DAA IC50 in experiment [1] was 5.1 nM and 15.9 nM. For the same molecule, the C3b CFA: time (min.) for 50% cleavage of C3b α′-chain in experiment [3] is 80.7 min and 82.6 min. For the same molecule, the AP-DAA IC50 in experiment [2] was 2.4 nM and 2.1 nM. Moreover, the C4b CFA: time (min.) for 50% cleavage of C4b α-chain in experiment [4] was 429 min and 465 min.

B11: D2D3M3M4 (L205K) (protein)
chain: CEVPTRLNSASLKQPYITQNYFPVGTVVEYECRPGYRREPSLSPKLTCLQNLKWSTAVEFCKKKSCPNPGEIRNGQIDVPGGILFGATISFSCNTGYKLFGSTSSFCKISGSSVQWSDPLPECREIYCTPPPKIKNGKHTFSEVEVFEYLDAVTYSCDPAPGPDPFSLIGESTIYCGDNSVWSRAAPECKVVKCRFPVVENGKQISGFGKKFYYKATVMFECDKGFYLDGSDTIVCDSNSTWDPPVPKCLKVL
B11: the CP-DAA IC50 in experiment [1] is 9.2 nM. The C3b CFA: time (min.) for 50% cleavage of C3b α′-chain in experiment [3] came out at 104 min. The molecule further showed an AP-DAA IC50 in experiment [2] above 10 nM. The same molecule registered a C4b CFA: time (min.) for 50% cleavage of C4b α-chain in experiment [4] of 433 min.

B12: D2D3M3M4 (Multi-5) or DCP (protein)
chain: CEVPTRLNSASLKQPYITQNYFPVGTVVEYECRPGYRREPSLSPKLTCLQNLKWSTAVEFCKKKSCPNPGEIRNGQIDVPGGILFGATISFSCNTGYKLIGSTSSFCLISGSSVQWSDKLPICEKVLCTPPPKIKNGKHTFSEVEVFEYLDAVTYSCDPAPGPDPFSLIGESTIYCGDNSVWSRAAPECKVVKCRFPVVENGKQISGFGKKFYYKATVMFECDKGFYLDGSDTIVCDSNSTWDPPVPKCLKVL
As to B12, the CP-DAA IC50 in experiment [1] was found to be 12.7 nM. Besides, the C3b CFA: time (min.) for 50% cleavage of C3b α′-chain in experiment [3] was found to be 3.3 min. The molecule also registered an AP-DAA IC50 in experiment [2] of 2.4 nM. The C4b CFA: time (min.) for 50% cleavage of C4b α-chain in experiment [4] worked out at 3.1 min.

B13: D2D3M3M4 (K195Y) (protein)
chain: CEVPTRLNSASLKQPYITQNYFPVGTVVEYECRPGYRREPSLSPKLTCLQNLKWSTAVEFCKKKSCPNPGEIRNGQIDVPGGILFGATISFSCNTGYYLFGSTSSFCLISGSSVQWSDPLPECREIYCTPPPKIKNGKHTFSEVEVFEYLDAVTYSCDPAPGPDPFSLIGESTIYCGDNSVWSRAAPECKVVKCRFPVVENGKQISGFGKKFYYKATVMFECDKGFYLDGSDTIVCDSNSTWDPPVPKCLKVL
Take B13: the CP-DAA IC50 in experiment [1] was above 100 nM. The molecule further returned an AP-DAA IC50 in experiment [2] above 10 nM. The molecule further yielded a C4b CFA: time (min.) for 50% cleavage of C4b α-chain in experiment [4] above 540 min.

B14: D2D3M3M4 (T200Y) (protein)
chain: CEVPTRLNSASLKQPYITQNYFPVGTVVEYECRPGYRREPSLSPKLTCLQNLKWSTAVEFCKKKSCPNPGEIRNGQIDVPGGILFGATISFSCNTGYKLFGSYSSFCLISGSSVQWSDPLPECREIYCTPPPKIKNGKHTFSEVEVFEYLDAVTYSCDPAPGPDPFSLIGESTIYCGDNSVWSRAAPECKVVKCRFPVVENGKQISGFGKKFYYKATVMFECDKGFYLDGSDTIVCDSNSTWDPPVPKCLKVL
In the case of B14, the CP-DAA IC50 in experiment [1] is 17.7 nM. The molecule also showed a C3b CFA: time (min.) for 50% cleavage of C3b α′-chain in experiment [3] of 103 min. The AP-DAA IC50 in experiment [2] was found to be 3.7 nM. The molecule also showed a C4b CFA: time (min.) for 50% cleavage of C4b α-chain in experiment [4] of 513 min.

B15: D2D3M3M4 (T192E) (protein)
chain: CEVPTRLNSASLKQPYITQNYFPVGTVVEYECRPGYRREPSLSPKLTCLQNLKWSTAVEFCKKKSCPNPGEIRNGQIDVPGGILFGATISFSCNEGYKLFGSTSSFCLISGSSVQWSDPLPECREIYCTPPPKIKNGKHTFSEVEVFEYLDAVTYSCDPAPGPDPFSLIGESTIYCGDNSVWSRAAPECKVVKCRFPVVENGKQISGFGKKFYYKATVMFECDKGFYLDGSDTIVCDSNSTWDPPVPKCLKVL
For the molecule B15, the CP-DAA IC50 in experiment [1] worked out at 15.3 nM. The C3b CFA: time (min.) for 50% cleavage of C3b α′-chain in experiment [3] came to 74.3 min. Also, the AP-DAA IC50 in experiment [2] was determined as 2.3 nM. For the same molecule, the C4b CFA: time (min.) for 50% cleavage of C4b α-chain in experiment [4] is 268 min.

B16: D2D3M3M4 (S199K) (protein)
chain: CEVPTRLNSASLKQPYITQNYFPVGTVVEYECRPGYRREPSLSPKLTCLQNLKWSTAVEFCKKKSCPNPGEIRNGQIDVPGGILFGATISFSCNTGYKLFGKTSSFCLISGSSVQWSDPLPECREIYCTPPPKIKNGKHTFSEVEVFEYLDAVTYSCDPAPGPDPFSLIGESTIYCGDNSVWSRAAPECKVVKCRFPVVENGKQISGFGKKFYYKATVMFECDKGFYLDGSDTIVCDSNSTWDPPVPKCLKVL
Regarding B16, the CP-DAA IC50 in experiment [1] is 21.7 nM. In experiment [3], this molecule yielded a C3b CFA: time (min.) for 50% cleavage of C3b α′-chain of 18.9 min. Further, the AP-DAA IC50 in experiment [2] stood at 6.6 nM. Also, in experiment [4], the C4b CFA: time (min.) for 50% cleavage of C4b α-chain came to 181 min.
